Assays:
human ephrin-A4-His [1] = molecular target: T1, human ephrin-A4-His (UniProt P52798 26-170); assay: Biacore
T1 chain: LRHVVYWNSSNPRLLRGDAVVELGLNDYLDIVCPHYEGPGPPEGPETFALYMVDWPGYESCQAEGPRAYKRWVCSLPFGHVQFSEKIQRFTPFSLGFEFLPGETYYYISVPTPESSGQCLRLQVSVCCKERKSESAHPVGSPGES

mEFNA4-Fc [2] = molecular target: T2, mEFNA4-Fc (mouse;human, UniProt O08542 26-176; P01857 100-330 = IgG part); assay: cell surface binding inhibition (flow cytometry); 0.1 ug/ml mEphrinA4-Fc
hEFNA4-Fc [3] = molecular target: T3, hEFNA4-Fc (human, UniProt P01857 100-330 = IgG part); assay: cell surface binding inhibition (flow cytometry); 1.0 ug/ml hEphrinA4-Fc
mEFNA4-Fc [4] = molecular target: T2, mEFNA4-Fc; assay: cell surface binding inhibition (flow cytometry); 1.0 ug/ml mEphrinA4-Fc
hEFNA4-Fc [5] = molecular target: T3, hEFNA4-Fc; assay: cell surface binding inhibition (flow cytometry); 0.1 ug/ml hEphrinA4-Fc
human ephrin-A4-His [6] = molecular target: T1, human ephrin-A4-His; assay: label-free interaction analysis
[7] = molecular target: T4, mouse ephrin-A4 homolog (recombinantly expressed, monomeric) (mouse, UniProt O08542 26-175); assay: label-free interaction analysis
T4 chain: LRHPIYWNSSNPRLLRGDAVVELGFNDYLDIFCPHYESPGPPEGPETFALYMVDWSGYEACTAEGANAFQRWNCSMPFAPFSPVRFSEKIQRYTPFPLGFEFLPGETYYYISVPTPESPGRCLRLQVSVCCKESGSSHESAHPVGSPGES

human ephrin-A4-His [8] = molecular target: T1, human ephrin-A4-His; assay: ForteBIO

B1: SC4.31 (antibody, V domains shown)
VH: QVQLQQPGAELVRPGASVKLSCKASGYTFTRDWMHWIKQRPGQGLDWIGTIHPYDSETHYNQNFKDKATLTVDKSSSTAYMQLSSLTSEDSAVYYCVTFIKTMVDTYYYAMDYWGQGTSVTVSS
VL: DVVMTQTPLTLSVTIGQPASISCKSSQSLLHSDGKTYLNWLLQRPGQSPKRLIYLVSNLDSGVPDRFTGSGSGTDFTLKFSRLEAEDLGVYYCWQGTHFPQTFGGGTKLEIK
In the case of B1, the Kd (human ephrin-A4-His [1]) is reported as 11 nM.

B2: E47.3 Ab (antibody, V domains shown)
VH: EVQLQQSGPELVKPGASVKISCTASGYTFTYFYMNWVKQSQGKSLEWVGQINPNNGGTAYNHKFRGKTTLTVDKSSNTAFMELRSLTSEDSAVYFCARWVGTHYFDYWGQGTTLTVSS
VL: DIVLTQSPASLPVSLGQRATISCRASQSVSSSSYTYIHWYQQKPGQPPKLLINFASNLESGVPARFSVSGSGTDFTLNIHPVEGEDTATYYCQHSWEIPPTFGGGTKLEIK
In the case of B2, the IC50 (mEFNA4-Fc [2]) is reported as ~0.0183 mg/L, the IC50 (hEFNA4-Fc [3]) is reported as 1.54 mg/L and the IC50 (mEFNA4-Fc [4]) is reported as ~0.0217 mg/L. For the same binder, the IC50 (hEFNA4-Fc [5]) was ~0.124 mg/L.

B3: hSC4.15 (antibody, V domains shown)
VH: EVQLVESGGGLVKPGGSLRLSCAASGFTFSTYGMSWVRQAPGKGLEWVATISSGGTYTYYPDSVKGRFKISRDNAKNSLYLQMNSLRAEDTAVYYCTRHDPNDGYYFLFAYWGQGTLVTVSS
VL: EIVLTQSPGTLSLSPGERATLSCKASQSVGNNVAWYQQKPGQAPRLLIYYASNRYTGIPDRFSGSGSGTDFTLTISRLEPEDFAVYYCQQHYSSPLTFGAGTKLEIK
B3 showed a Kd (human ephrin-A4-His [6]) of 4.8 nM and a Kd [7] of 3.4 nM.

B4: E15.3 Ab (antibody, V domains shown)
VH: EVQVVESGGDLVKPGGSLKLSCAASGFTFSTYGMSWVRQTPDKRLEWVATISSGGTYTYYPDSVKGRFKISRDNAKDTLYLQMSSLKSEDTAMYYCTRHDPNDGYYFLFAYWGQGTLVIVSA
VL: SIGRTQIPKFLPVSAGDRVTMTCKASQSVGNNVAWYQQKAGQSPKLLIYYASNRYTGVPDRFTGSGSGTDFTFTISSVQVEDLAVYFCQQHYSSPLTFGAGTKLELK
Work on B4 yielded an IC50 (mEFNA4-Fc [2]) of 2.09 mg/L, an IC50 (hEFNA4-Fc [3]) of 20.1 mg/L and an IC50 (mEFNA4-Fc [4]) of 16.7 mg/L. The IC50 (hEFNA4-Fc [5]) was 1.14 mg/L.

B5: SC4.15 (Murine mAb) (antibody, V domains shown)
VH: EVQVVESGGDLVKPGGSLKLSCAASGFTFSTYGMSWVRQTPDKRLEWVATISSGGTYTYYPDSVKGRFKISRDNAKDTLYLQMSSLKSEDTAMYYCTRHDPNDGYYFLFAYWGQGTLVIVSA
VL: SIGRTQIPKFLPVSAGDRVTMTCKASQSVGNNVAWYQQKAGQSPKLLIYYASNRYTGVPDRFTGSGSGTDFTFTISSVQVEDLAVYFCQQHYSSPLTFGAGTKLELK
In the case of B5, the Kd (human ephrin-A4-His [6]) is reported as 2.7 nM.

B6: SC4.15 (antibody, V domains shown)
VH: EVQVVESGGDLVKPGGSLKLSCAASGFTFSTYGMSWVRQTPDKRLEWVATISSGGTYTYYPDSVKGRFKISRDNAKDTLYLQMSSLKSEDTAMYYCTRHDPNDGYYFLFAYWGQGTLVIVSA
VL: SIGRTQIPKFLPVSAGDRVTMTCKASQSVGNNVAWYQQKAGQSPKLLIYYASNRYTGVPDRFTGSGSGTDFTFTISSVQVEDLAVYFCQQHYSSPLTFGAGTKLELK
For B6, the Kd (human ephrin-A4-His [1]) was 4.8 nM.

B7: hSC4.47 (antibody, V domains shown)
VH: QVQLVQSGAEVKKPGASVKVSCKASGYTFTYFYMNWVRQAPGQGLEWVGQINPNNGGTAYAQKFQGRVTMTRDTSTSTVYMELSSLRSEDTAVYYCARWVGTHYFDYWGQGTTLTVSS
VL: EIVLTQSPATLSLSPGERATLSCRASQSVSSSSYTYIHWYQQKPGQAPRLLINFASNLESGIPARFSGSGSGTDFTLTISSLEPEDFAVYYCQHSWEIPPTFGGGTKLEIK
With B7 the Kd [7] was > 100 nM.

B8: SC4.2 (antibody, V domains shown)
VH: QVQLQQSGAELVRPGTSVTLSCKASGYTFTDYEMHWVKQTPVLGLEWIGAFDPETGNTVYNQKFKGKATLTADKSPNTAYMELISLTSEDSAVYYCARGYPAWFGYWGQGTLVTVSA
VL: DVVMTQIPLSLPVTLGDQASISCRSSQSLAHTNGNTYLHWYLQKPGQSPKLLIYKVSNRFSGVPDRFSGSGSGTDFTLKISRVEAEDLGVYFCSQDTHVPPTFGGGTKLEMK
Work on B8 yielded a Kd (human ephrin-A4-His [8]) of 20 nM.

B9: SC4.5 (antibody, V domains shown)
VH: QVQLKQSGPGLVAPSQSLSITCTVSGFSLTTYGVDWVRQSPGKGLEWLGVIWGGGSTNYNSALKSRLSISKDNSKSQVFLKMNSLQTDDTAMYYCASDWAYWGQGTLVTVSA
VL: DIVMTQSQKFMSTSVGDRVTVTCKASQNVGTNVAWFQQKSGQSPKPLIHSASYRYSGVPDRFTGSGSGTDFTLTITNVQSEDLVAYFCQQYKRYPYTFGGGTKLEIKR
B9 gave a Kd (human ephrin-A4-His [1]) of 0.3 nM.

B10: hSC4.22 (antibody, V domains shown)
VH: QVQLVQSGAEVKKPGASVKVSCKASGYTFTGYYIHWVRQAPGQGLEWMGWIYPGNFNTKYNERFKGRVTMTTDTSTSTAYMELRSLRSDDTAVYYCAREDGSPYYAMDYWGQGTSVTVSS
VL: DIVMTQTPLSLSVTPGQPASISCRSSQSLVHSNGNTFLYWYLQKPGQSPQLLIYRVSNRFSGVPDRFSGSGSGTDFTLKISRVEAEDVGVYYCFQATHVPWTFGGGTKVEIK
In the case of B10, the Kd (human ephrin-A4-His [6]) is reported as 3.8 nM and the Kd [7] is reported as > 100 nM.

B11: SC4.22 (Murine mAb) (antibody, V domains shown)
VH: QIQLQQSGPELVKPGASVKISCKASGYTFTGYYIHWVKQRPGQGLEWIGWIYPGNFNTKYNERFKGMATLTVDTSSSTAYMQLSSLTSEDSAVYLCAREDGSPYYAMDYWGQGTSVTVSS
VL: DVVMTQTPLSLPVSLGDQASISCRSSQSLVHSNGNTFLYWYLQKPGQSPKLLIYRVSNRFSGVPDRFSGSGSGTDFTLKISRVEAEDLGVYFCFQATHVPWTFGGGTKLEIK
In the case of B11, the Kd (human ephrin-A4-His [6]) is reported as 3.1 nM.

B12: SC4.22 (antibody, V domains shown)
VH: QIQLQQSGPELVKPGASVKISCKASGYTFTGYYIHWVKQRPGQGLEWIGWIYPGNFNTKYNERFKGMATLTVDTSSSTAYMQLSSLTSEDSAVYLCAREDGSPYYAMDYWGQGTSVTVSS
VL: DVVMTQTPLSLPVSLGDQASISCRSSQSLVHSNGNTFLYWYLQKPGQSPKLLIYRVSNRFSGVPDRFSGSGSGTDFTLKISRVEAEDLGVYFCFQATHVPWTFGGGTKLEIK
Binder B12 has a Kd (human ephrin-A4-His [1]) of 3.1 nM.
